A short description of data set [1]: Coassembly of negatively and positively charged peptide amphiphiles. The class given is physicochemical. The following applies: 10 mg/mL, mixed with approximately 3 molar equivalents of SEQ ID NO:22. The text has this: This example illustrates the self assembly of negatively charged peptide amphiphiles using positively charged peptide amphiphiles, coassembly, to induce nanofiber gel formation. […] Similar approaches may be applied using variations the charged molecules involved.

Data set [2] concerns MC3T3-E1 mouse calvarial osteoblasts. Nature of the data set: Growth and differentiation of MC3T3-E1 osteoblasts on self assembled nanofibers coated on glass. The data set is classed as cell-based. The procedure: Cell culture preparation includes treating glass coverslips overnight in 100% ethanol. […] of SEQ ID NO:1, was spin-coated at 1500 r.p.m. for 30 seconds onto the treated glass cover slips. Samples were dried under vacuum to promote self-assembly on the glass surface. Samples were then immersed in 10% iodine for 15 minutes to cross-link the assembled PA nanofibers. Cross-linked samples were thoroughly, but gently rinsed by immersion in water 3×. Rinsed slides were dried by vacuum desiccation and placed in a 24-well tissue culture well plate. MC3T3-E1 mouse calvarial osteoblasts were plated at 10,000 cells/coverslip in 1 mL of MEM-a culture medium containing 10% fetal bovine serum, 1% penicillin/streptomycin, 30 mM β-glycerolphosphate, and […] ascorbic acid. The medium was exchanged every 3 days.

Data set [3] is described as follows: Gelation / self assembly of peptide amphiphile solutions, TEM of bulk gels. The class given is physicochemical. The procedure:
Synthesis of peptide amphiphile, SEQ ID NO:1, was synthesized with standard Fmoc chemistry on an Applied Biosystems […] automated peptide synthesizer. The peptide was grown from the C terminus to N terminus with the sequence CCCCGGGSS(P)DS(P)D, SEQ ID NO:1, and the N terminus was capped with a 16 carbon fatty acid. The synthesis of the peptide amphiphile, SED ID NO:1, was verified by ESI mass spectroscopy indicating correct molecular weight. […] To confirm the formation of fibers, transmission electron microscopy (TEM) images of these bulk gels were taken and are shown in FIG. 3. Fibers on the order of 5-10 nm in diameter can be seen, as well as globular micelles ranging from 10-15 nm in diameter.

Square brackets hold non-standard residues; d marks the D form. Ends that are not written are not given here. * marks the point of attachment. Palmitoyl = CCCCCCCCCCCCCCCC(=O)*; pS = N[C@@H](COP(=O)(O)O)C(=O)O

With “SEQ ID NO:25: peptide amphiphiles having an SSDSD peptide sequence; negatively charged; possibly the SEQ ID NO:1 amphiphile (also: alkyl tail)”, in data set [1], the result of coassembly was “self-supporting PA nanofiber gel”.
For the substance “C16H31O-CCCCGGGSS(P)DS(P)D (Palmitoyl-CCCCGGGS[pS]D[pS]D; not fully specified (C-terminus); cysteine pairing not given here) [SEQ ID NO 1, peptide amphiphile: alkyl tail C16H31O, structural peptide CCCCGGG, functional peptide SS*DS*D]”, the “cell adhesion and spreading on nanofiber-coated glass slides” value in data set [2] (MC3T3-E1, 10,000 cells/coverslip, iodine cross-linked nanofibers) was “adhering and spreading”. Besides, the “osteoblastic differentiation, mineral by Von Kossa staining” value in data set [2] (MC3T3-E1, 17 days of culture) is reported as “producing significant mineral”. Besides, in data set [2] (MC3T3-E1, after 12 days (FIG. 4B legend)), the “cell layer on self assembled peptide amphiphile coated glass” value is “confluent layer”. The gelation of solution entry in data set [3] (1% and 0.1% solutions, HCl and Ca2+ addition) is listed as “found to gel”. In data set [3] (bulk gels), the “globular micelle diameter (TEM)” value is reported as 10-15 nm and the “nanofiber diameter (TEM)” value is reported as 5-10 nm.

Source of the values: patent US7534761B1, “Charged peptide-amphiphile solutions and self-assembled peptide nanofiber networks formed therefrom” (North Western University, priority 2002, dated 2009).
